Here are results for 4 substances from US20190284544.

For series [1], the system named is homologous regions of other CAPN members.
Series [2] concerns CAPN5-370-380 peptide (RQNRGGGCINH).
The next series deals with CAPN5p.372-378 peptide (UniProt O15484).

CAPN5-R243L, sequence (chain, as listed by the source R243L): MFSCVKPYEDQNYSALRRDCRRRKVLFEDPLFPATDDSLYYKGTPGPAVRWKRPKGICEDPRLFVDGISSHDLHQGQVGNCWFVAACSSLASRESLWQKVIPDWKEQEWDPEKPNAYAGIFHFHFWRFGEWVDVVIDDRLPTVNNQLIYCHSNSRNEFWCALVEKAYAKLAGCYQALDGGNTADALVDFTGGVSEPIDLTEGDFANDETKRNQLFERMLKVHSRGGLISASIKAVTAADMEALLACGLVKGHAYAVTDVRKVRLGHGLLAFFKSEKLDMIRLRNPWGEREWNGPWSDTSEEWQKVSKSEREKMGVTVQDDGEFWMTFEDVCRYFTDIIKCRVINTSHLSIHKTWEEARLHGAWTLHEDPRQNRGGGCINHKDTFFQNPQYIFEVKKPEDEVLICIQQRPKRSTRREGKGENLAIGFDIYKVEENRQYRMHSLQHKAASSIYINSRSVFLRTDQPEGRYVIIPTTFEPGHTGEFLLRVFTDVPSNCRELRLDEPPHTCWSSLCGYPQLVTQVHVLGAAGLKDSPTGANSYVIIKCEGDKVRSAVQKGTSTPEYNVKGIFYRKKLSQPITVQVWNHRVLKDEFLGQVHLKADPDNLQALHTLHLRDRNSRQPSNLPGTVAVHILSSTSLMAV
CAPN5-370-390 peptide, sequence (chain, as listed by the source): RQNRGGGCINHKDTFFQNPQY
Pep-2-Mod, sequence (chain, as listed by the source): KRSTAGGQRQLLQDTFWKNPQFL
Pep-1-Mod, sequence (chain, as listed by the source): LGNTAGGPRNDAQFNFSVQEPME
CAPN14 peptide, sequence (chain, as listed by the source): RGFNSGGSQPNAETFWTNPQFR
CAPN1 WT, sequence (P07384 2-714): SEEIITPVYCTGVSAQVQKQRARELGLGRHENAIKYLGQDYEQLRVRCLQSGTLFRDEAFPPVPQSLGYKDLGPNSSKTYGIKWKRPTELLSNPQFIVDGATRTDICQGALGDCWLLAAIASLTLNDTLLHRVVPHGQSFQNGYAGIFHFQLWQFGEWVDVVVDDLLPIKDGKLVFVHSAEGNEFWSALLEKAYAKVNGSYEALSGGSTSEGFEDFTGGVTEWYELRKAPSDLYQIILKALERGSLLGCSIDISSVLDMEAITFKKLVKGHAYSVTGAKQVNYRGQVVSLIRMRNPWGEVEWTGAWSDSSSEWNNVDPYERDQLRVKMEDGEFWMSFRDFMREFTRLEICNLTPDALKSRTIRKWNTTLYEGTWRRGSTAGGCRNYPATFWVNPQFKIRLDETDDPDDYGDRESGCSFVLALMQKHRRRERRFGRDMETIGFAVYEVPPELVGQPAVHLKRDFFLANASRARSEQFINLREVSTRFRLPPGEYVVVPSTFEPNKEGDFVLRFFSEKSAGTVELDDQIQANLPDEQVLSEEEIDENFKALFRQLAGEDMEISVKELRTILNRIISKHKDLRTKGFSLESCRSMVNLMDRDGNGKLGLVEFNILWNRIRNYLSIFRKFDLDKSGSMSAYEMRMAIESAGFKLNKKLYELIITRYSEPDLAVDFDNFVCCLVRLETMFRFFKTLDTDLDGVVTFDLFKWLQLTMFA

For the substance CAPN1 WT, in series [1], the proteolysis result was “CAPN1 does not appear to proteolyze these regions”.
With MBP-CAPN5 WT, the “reaction rate (initial velocity of proteolysis)” value in the series with Pep-1-Mod and in the series on Pep-2-Mod was “Modification of the amino acids slows the reaction rate” in each case.
As for CAPN5-R243L, the “cleavage (change in fluorescence)” value in series [2] is “the CAPN5-370-380 fragment was the most sensitive to cleavage by both WT and R243L CAPN5”. The “fluorescent intensity (FRET substrate proteolysis)” value is “the greatest fluorescent intensity is detected with substrates CAPN5 (p370-390), CAPN5 (370-380), and PDGFB (155-170)” in series [2]; “the greatest fluorescent intensity is detected with substrates CAPN5 (p370-390), CAPN5 (370-380), and PDGFB (155-170)” in the series on CAPN5-370-390 peptide; “the greatest fluorescent intensity is detected with substrates CAPN5 (p370-390), CAPN5 (370-380), and PDGFB (155-170)” with PDGFB (155-170) peptide.
As to CAPN5 WT (Homo sapiens calpain 5), the proteolysis result with CAPN14 peptide is recorded as “there was some proteolysis of the CAPN14 peptide”; in the series on EPLFAERK peptide, “it is not proteolyzed by CAPN5”; in series [1], “CAPN5 did not proteolyze homologous regions of other CAPN members as well as it proteolyzed its own site”. In addition, in series [2], the “cleavage (change in fluorescence)” value was “the CAPN5-370-380 fragment was the most sensitive to cleavage by both WT and R243L CAPN5”. Further, the “cleavage (fluorescence)” value in series [2] is “rapid and high cleavage of the 11 aa peptide”; in the series with CAPN5-370-390 peptide it was “The 21 aa peptide was cleaved slower and does not show cleavage substrate inhibition”; with CAPN5p.372-378 peptide, “There was mild cleavage of the 7 aa peptide was observed”. Moreover, in series [2], the “fluorescent intensity (FRET substrate proteolysis)” value is “CAPN5-WT proteolyzes the substrate, CAPN5 (p370-380), at a higher rate than other peptides”. Also, the results for the “proteolysis (fluorescence)” value (in series [2]; in the series on EPLFAERK peptide) were “The peptide shows high proteolysis when incubated with CAPN5-WT” and “very limited proteolysis when incubated with CAPN5-WT”, respectively. Moreover, in the series on Cyclic CAPN5 p.370-80, the “initial reaction rate (proteolysis of CAPN5p.370-80 by CAPN5 WT)” value was “Addition of 10 µM Cyclic CAPN5 p.370-80 slows the initial reaction rate by 40%”. Further, the “initial velocity versus substrate concentration, with and without 10 µM cyclic peptide” value with Cyclic CAPN5 p.370-80 was “Increasing concentrations of substrate does not overcome inhibition by cyclic peptide”.
